From the supplement of paper PMC10065799, “High-throughput profiling of sequence recognition by tyrosine kinases and SH2 domains using bacterial peptide display” (eLife, 2023)

Legend:
[1] = test system: AncSZ; test: phosphorylation enrichment, bacterial display (enrichment ratio); higher = better substrate or ligand; peptides without Tyr show the background
[2] = biological target: EPHB1 (UniProt P54762); test: as above
[3] = biological target: EPHB2 (UniProt P29323); test: as above
[4] = biological target: FGFR1 (UniProt P11362); test: as above
[5] = biological target: FGFR3 (UniProt P22607); test: as above
[6] = test system: Fer (mouse); test: as above
[7] = biological target: Fes (UniProt P07332); test: as above
[8] = biological target: Fyn (UniProt P06241); test: as above
[9] = biological target: Hck (UniProt P08631); test: as above
[10] = biological target: Jak2 (UniProt O60674); test: as above
[11] = biological target: MERTK (UniProt Q12866); test: as above
[12] = test system: c-Abl (mouse); test: as above
[13] = test system: c-Src; test: as above
[14] = biological target: Grb2 SH2 (UniProt P62993); test: SH2 binding enrichment of the phosphorylated peptide, bacterial display (enrichment ratio); higher = better substrate or ligand; peptides without Tyr show the background
[15] = biological target: SHP2-C SH2; test: as above
[16] = biological target: c-Src SH2; test: as above
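For SH2 binding enrichment of the phosphorylated peptide, bacterial display in this document: peptide library displayed on the E. coli surface as eCPX fusions, selected cells deep-sequenced, score is each peptide's frequency after selection divided by its frequency in the input.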
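For phosphorylation enrichment, bacterial display in this document: 11-residue human phosphosite peptides and single-mutation variants displayed on the E. coli surface, counted by deep sequencing, each peptide's frequency after selection divided by its frequency in the unselected input library; frequency after pTyr selection over input frequency; kinase dosed for 20-30% of maximal phosphorylation in three min.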

Sequence of Jak2 (O60674 whole entry, looked up): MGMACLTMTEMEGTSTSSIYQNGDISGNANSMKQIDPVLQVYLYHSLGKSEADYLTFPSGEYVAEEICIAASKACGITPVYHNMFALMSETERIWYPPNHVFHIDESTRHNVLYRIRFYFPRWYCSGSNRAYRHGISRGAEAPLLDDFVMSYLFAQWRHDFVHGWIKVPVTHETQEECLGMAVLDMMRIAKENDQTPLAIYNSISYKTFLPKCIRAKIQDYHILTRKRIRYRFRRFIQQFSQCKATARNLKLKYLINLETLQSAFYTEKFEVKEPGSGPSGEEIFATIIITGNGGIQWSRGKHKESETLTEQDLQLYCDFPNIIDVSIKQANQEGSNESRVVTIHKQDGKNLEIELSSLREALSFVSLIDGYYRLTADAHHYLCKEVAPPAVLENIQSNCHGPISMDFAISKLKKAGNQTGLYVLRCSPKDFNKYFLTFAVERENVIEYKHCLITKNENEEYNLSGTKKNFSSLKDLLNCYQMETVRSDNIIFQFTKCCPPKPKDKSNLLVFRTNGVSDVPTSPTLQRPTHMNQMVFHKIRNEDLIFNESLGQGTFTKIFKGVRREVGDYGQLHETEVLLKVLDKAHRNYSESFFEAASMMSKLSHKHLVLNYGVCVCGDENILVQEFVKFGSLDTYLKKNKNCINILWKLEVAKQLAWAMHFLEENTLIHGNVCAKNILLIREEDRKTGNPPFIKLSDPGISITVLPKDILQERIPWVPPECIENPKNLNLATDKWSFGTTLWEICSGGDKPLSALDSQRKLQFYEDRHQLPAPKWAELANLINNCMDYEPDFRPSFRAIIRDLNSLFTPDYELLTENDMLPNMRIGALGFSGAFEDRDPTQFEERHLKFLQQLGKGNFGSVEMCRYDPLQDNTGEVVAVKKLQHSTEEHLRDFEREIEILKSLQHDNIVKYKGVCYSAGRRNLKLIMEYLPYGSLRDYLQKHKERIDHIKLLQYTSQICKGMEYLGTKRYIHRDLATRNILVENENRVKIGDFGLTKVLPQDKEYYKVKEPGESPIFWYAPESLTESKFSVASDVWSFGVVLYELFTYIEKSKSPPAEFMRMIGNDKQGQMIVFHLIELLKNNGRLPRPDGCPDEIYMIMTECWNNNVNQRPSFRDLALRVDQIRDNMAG
Sequence of EPHB1 (P54762 whole entry, looked up): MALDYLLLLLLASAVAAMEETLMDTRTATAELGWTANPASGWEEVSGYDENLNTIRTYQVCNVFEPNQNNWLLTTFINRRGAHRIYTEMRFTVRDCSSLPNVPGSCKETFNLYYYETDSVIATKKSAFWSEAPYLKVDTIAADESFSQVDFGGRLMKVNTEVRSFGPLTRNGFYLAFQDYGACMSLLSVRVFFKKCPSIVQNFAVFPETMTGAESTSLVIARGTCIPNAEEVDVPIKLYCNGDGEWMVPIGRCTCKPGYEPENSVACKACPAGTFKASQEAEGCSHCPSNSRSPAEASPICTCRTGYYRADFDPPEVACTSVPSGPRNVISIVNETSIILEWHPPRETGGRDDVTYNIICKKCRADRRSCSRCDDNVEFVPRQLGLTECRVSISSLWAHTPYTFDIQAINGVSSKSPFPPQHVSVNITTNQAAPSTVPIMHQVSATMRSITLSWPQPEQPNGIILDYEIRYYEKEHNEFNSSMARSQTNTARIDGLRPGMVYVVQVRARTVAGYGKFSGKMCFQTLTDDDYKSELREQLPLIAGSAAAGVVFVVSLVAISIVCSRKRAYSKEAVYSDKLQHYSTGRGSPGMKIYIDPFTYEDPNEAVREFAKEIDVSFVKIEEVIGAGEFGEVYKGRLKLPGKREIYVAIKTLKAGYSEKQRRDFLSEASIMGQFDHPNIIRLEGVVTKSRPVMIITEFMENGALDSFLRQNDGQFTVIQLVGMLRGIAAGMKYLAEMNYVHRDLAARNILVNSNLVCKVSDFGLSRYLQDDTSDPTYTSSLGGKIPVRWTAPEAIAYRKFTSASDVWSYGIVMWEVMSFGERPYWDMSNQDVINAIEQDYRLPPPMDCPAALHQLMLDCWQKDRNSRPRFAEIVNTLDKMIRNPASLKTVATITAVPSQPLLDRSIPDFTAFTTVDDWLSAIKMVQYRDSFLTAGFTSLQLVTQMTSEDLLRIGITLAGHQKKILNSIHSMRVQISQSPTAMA
Sequence of Fes (P07332 whole entry, looked up): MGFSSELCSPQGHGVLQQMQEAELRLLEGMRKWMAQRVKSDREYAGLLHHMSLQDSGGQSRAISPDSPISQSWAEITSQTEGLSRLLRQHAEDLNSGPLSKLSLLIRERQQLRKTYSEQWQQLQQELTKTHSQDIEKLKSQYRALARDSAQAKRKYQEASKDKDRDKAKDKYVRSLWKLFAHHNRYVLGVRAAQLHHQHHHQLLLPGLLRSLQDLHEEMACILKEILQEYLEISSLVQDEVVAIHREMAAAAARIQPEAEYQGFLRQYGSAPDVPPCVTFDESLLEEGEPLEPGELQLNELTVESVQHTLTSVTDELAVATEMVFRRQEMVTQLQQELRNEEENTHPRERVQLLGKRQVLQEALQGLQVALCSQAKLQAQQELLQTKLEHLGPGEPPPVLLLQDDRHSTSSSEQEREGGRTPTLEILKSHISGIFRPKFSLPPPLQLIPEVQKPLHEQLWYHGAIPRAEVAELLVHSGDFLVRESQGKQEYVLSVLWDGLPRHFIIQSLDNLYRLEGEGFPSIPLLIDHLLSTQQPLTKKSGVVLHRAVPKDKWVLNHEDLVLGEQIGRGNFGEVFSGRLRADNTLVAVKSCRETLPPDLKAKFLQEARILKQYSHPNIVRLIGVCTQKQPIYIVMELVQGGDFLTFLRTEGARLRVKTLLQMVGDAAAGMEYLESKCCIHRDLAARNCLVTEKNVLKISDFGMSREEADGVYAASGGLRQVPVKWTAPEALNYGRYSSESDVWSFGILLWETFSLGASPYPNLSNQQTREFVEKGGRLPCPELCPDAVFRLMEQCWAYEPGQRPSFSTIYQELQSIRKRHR
Sequence of EPHB2 (P29323 whole entry, looked up): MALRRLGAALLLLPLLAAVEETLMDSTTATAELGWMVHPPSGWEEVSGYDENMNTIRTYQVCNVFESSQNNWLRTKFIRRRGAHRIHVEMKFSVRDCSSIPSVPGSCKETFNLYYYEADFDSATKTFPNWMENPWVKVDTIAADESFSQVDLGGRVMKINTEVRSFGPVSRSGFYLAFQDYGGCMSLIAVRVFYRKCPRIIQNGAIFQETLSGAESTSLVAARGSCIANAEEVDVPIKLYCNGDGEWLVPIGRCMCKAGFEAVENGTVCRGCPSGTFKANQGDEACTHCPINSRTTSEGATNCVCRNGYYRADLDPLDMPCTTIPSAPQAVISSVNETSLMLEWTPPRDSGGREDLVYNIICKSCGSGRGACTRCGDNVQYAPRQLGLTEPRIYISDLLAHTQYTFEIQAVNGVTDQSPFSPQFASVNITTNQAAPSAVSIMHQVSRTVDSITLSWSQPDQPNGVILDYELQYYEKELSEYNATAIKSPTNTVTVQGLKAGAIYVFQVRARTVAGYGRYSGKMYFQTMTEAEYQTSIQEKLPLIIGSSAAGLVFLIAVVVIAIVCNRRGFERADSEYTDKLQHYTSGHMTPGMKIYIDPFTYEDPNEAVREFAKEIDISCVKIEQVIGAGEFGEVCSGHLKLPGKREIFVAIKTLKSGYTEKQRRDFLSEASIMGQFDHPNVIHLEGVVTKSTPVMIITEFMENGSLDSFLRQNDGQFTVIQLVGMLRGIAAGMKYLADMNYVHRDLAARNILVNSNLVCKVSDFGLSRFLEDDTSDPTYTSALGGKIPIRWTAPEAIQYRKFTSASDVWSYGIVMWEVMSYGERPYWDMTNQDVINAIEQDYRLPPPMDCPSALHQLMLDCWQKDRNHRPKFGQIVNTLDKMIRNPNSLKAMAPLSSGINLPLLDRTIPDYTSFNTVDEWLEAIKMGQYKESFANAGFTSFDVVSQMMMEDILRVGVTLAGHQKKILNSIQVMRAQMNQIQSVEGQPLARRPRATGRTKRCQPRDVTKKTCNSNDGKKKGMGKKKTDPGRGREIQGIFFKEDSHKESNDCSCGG
Sequence of FGFR3 (P22607 whole entry, looked up): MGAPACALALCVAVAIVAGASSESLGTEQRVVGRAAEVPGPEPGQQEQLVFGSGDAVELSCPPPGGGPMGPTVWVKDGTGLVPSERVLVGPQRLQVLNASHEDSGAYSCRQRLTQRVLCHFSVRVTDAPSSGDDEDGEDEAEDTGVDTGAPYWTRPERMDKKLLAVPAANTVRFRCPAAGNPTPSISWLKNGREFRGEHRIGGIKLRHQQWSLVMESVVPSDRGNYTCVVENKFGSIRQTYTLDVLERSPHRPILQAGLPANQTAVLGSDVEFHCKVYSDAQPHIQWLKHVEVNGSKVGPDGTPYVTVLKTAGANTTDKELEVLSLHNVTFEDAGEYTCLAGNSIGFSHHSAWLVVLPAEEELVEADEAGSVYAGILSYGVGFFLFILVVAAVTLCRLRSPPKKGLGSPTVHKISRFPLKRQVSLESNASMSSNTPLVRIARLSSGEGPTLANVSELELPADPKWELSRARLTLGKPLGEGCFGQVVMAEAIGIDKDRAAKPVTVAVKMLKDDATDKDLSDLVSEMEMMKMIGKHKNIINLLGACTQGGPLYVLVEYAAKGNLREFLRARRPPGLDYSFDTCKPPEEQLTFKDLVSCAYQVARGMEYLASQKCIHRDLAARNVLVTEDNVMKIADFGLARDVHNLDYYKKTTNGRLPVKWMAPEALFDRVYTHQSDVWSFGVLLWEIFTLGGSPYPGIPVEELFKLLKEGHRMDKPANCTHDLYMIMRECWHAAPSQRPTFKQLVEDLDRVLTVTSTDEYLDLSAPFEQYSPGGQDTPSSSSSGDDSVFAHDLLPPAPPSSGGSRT

Sequence | SH2 binding enrichment [14] | SH2 binding enrichment [15] | SH2 binding enrichment [16] | phosphorylation enrichment [1] | phosphorylation enrichment [2] | phosphorylation enrichment [3] | phosphorylation enrichment [4] | phosphorylation enrichment [5] | phosphorylation enrichment [6] | phosphorylation enrichment [7] | phosphorylation enrichment [8] | phosphorylation enrichment [9] | phosphorylation enrichment [10] | phosphorylation enrichment [11] | phosphorylation enrichment [12] | phosphorylation enrichment [13]
EKPAKYDDIKK [GAPDH_Y255] | 0.657 | 0.662 | 1.34 | 0.782 | 0.441 | 0.452 | 0.391 | 0.503 | 0.392 | 1.01 | 0.316 | 0.426 | 0.745 | 0.334 | 0.632 | 0.352
RREWYYEVIIV [BACE1_Y260] | 0.873 | 0.75 | 0.545 | 0.874 | 0.516 | 0.725 | 2.85 | 2.03 | 0.835 | 0.751 | 0.571 | 0.718 | 0.389 | 0.832 | 0.771 | 0.635
DHAGTYGLGDR [MAPT_Y18] | 0.797 | 0.783 | 0.588 | 0.429 | 0.363 | 0.304 | 0.406 | 0.45 | 0.3 | 0.576 | 0.48 | 0.43 | 0.507 | 0.352 | 0.442 | 0.533
WHHTFYNELCV [ACTC1_Y93_R97C] | 0.86 | 0.767 | 1.2 | 1.19 | 0.793 | 0.658 | 0.881 | 0.979 | 1.04 | 1.23 | 0.574 | 1.18 | 1.03 | 0.905 | 0.761 | 0.73
LIHLHYIRKDY [BBS4_Y43] | 1.69 | 1.88 | 1.71 | 1.21 | 0.602 | 0.63 | 0.517 | 0.763 | 0.447 | 1.14 | 0.548 | 0.444 | 0.857 | 0.377 | 0.632 | 0.393
ETALHYIHDGI [GATD3A_Y250] | 0.786 | 1.03 | 0.501 | 0.818 | 0.524 | 0.525 | 0.412 | 0.637 | 0.525 | 0.796 | 0.433 | 0.432 | 0.775 | 0.431 | 0.659 | 0.48
YRAVKYLQMVG [AVPR2_Y117_C112Y] | 0.709 | 2.33 | 0.372 | 0.95 | 0.582 | 0.539 | 0.552 | 0.653 | 0.429 | 0.827 | 0.397 | 0.584 | 0.766 | 0.385 | 0.621 | 0.36

Continued, in another order:

SH2 binding enrichment [14] | SH2 binding enrichment [15] | SH2 binding enrichment [16] | Sequence | phosphorylation enrichment [1] | phosphorylation enrichment [2] | phosphorylation enrichment [3] | phosphorylation enrichment [4] | phosphorylation enrichment [5] | phosphorylation enrichment [6] | phosphorylation enrichment [7] | phosphorylation enrichment [8] | phosphorylation enrichment [9] | phosphorylation enrichment [10] | phosphorylation enrichment [11] | phosphorylation enrichment [12] | phosphorylation enrichment [13]
0.593 | 0.753 | 3.09 | VISNAYVDLSP [HSD17B4_Y602_A606S] | 1.11 | 0.443 | 0.523 | 0.896 | 0.62 | 0.511 | 0.818 | 0.534 | 0.542 | 0.829 | 0.518 | 0.711 | 0.525
0.539 | 0.57 | 0.424 | RFLRGYRQHAY [HLA-A_Y137_D140H] | 1.1 | 0.787 | 0.879 | 0.623 | 0.849 | 1.02 | 1.04 | 0.654 | 1.06 | 0.979 | 1.33 | 1.31 | 1.11
0.725 | 0.742 | 0.54 | MKGDFYCFLAE [YWHAG_Y131_R132C_YF] | 1.32 | 1.18 | 0.88 | 1.02 | 1.5 | 0.644 | 1.58 | 0.456 | 0.695 | 1.29 | 2.81 | 0.971 | 0.592
0.784 | 0.719 | 0.455 | AFGGGYGGVLT [KRT19_Y65_YF] | 0.699 | 0.478 | 0.407 | 0.338 | 0.446 | 0.312 | 0.647 | 0.378 | 0.454 | 0.625 | 0.286 | 0.685 | 0.38
0.69 | 0.691 | 0.506 | RAADFYSQQMA [GBP6_Y334_YF] | 0.798 | 0.425 | 0.468 | 0.537 | 0.671 | 0.538 | 0.769 | 0.427 | 0.375 | 1.16 | 0.56 | 1.04 | 0.675
1.11 | 1.57 | 1.34 | FHLLPYTVRAM [PARS2_Y93_YF] | 0.8 | 0.581 | 0.633 | 0.564 | 0.551 | 0.514 | 0.971 | 0.446 | 0.501 | 0.691 | 0.438 | 0.546 | 0.711
0.741 | 0.717 | 0.683 | SVVVPYEPPEL [TP53_Y220_V225L] | 0.905 | 0.489 | 0.524 | 0.459 | 0.666 | 0.491 | 0.869 | 0.494 | 0.503 | 0.811 | 0.424 | 0.54 | 0.437
0.7 | 0.882 | 0.457 | DLLNSYTENEG [HSPA4L_Y600_I601T] | 1.17 | 0.482 | 0.618 | 0.578 | 0.759 | 0.446 | 1.24 | 0.614 | 0.603 | 1.16 | 0.492 | 0.623 | 0.616
0.538 | 0.504 | 0.725 | LRRFIYRPPDR [OTOF_Y1231] | 0.825 | 0.529 | 0.656 | 0.808 | 0.656 | 0.583 | 1.18 | 0.678 | 0.854 | 0.809 | 0.824 | 0.485 | 0.954
